Reference: patent US20210187071A1, “COMPOSITIONS COMPRISING MDA-7/IL-24 PROTEIN AND METHODS OF USE” (VIRGINIA COMMONWEALTH UNIVERSITY, priority 2017, published 2021)
“Also recorded” adds a separate entry of the source.

Columns and labels:
PC3-ML^Akt = test: Experimental bone metastasis model with PC3-ML cells over expressing constitutively active Akt; assay type: in vivo, male athymic nude mice; settings: MDA-7/IL-24 protein 5 mg/kg tail vein, 6 doses over three weeks
Description: To evaluate the role of Akt in vivo, metastatic PC3-ML cells and PC3-ML cells over expressing constitutively active Akt (PC3-MI/**) (FIG. 5A) carrying firefly luciferase were injected into male athymic nude mice through the intracardiac route. Clone 1 was used for the in vivo studies, which was validated for expression of Akt downstream pathway gene expression by western blotting (FIG. 14). Proliferation, invasion, and migration of the tumor cells were monitored by IVIS® imaging. […] The Akt overexpressing PC3-ML cells were more metastatic than the control PC3-ML cells. […] These observations illustrate the significance of Akt in PC-mediated bone metastasis development, which can be partially abrogated by MDA-7/IL-24-treatment (FIG. 5B). […] To investigate osteoclastic differentiation in these animals, bone marrow cells were isolated after completion of the study. Osteoclast differentiation was induced as described above. […] Osteoclast differentiation assays further illustrated the importance of Akt in PC-mediated bone metastasis (FIGS. 5D and 5E). A schematic representation of the proposed role of MDA-7/IL-24 protein in PC-mediated bone metastasis through modulation of the bone microenvironment is presented in FIG. 6. […]

[1] = test system: TRAP, Cathepsin K (CTSK), and Calcitonin Receptor (CTR) genes; test: RQ-PCR of osteoclastic genes in RAW 264.7 cells; assay type: cell-based, mouse; settings: 5 days, MDA-7/IL-24 protein 10 μg/mL, RANKL 100 ng/mL
Description: Real Time q-PCR: Total RNA was isolated from cells with the RNA isolation kit from Qiagen (Valencia, Calif., USA). RQ-PCR was performed using TaqMan probes and master mix from Applied Biosystems (Foster City, Calif., USA). Data were analyzed using the graph pad prism software.
To investigate the effect of MDA-7/IL-24 on osteoclast differentiation, bone marrow cells from athymic nude mice were isolated and induced to differentiate with RANKL in the presence or absence of MDA-7/IL-24 protein. Five days after induction with RANKL, osteoclast differentiation was measured by counting multinucleated cells. Cells positively stained for TRAP and multinucleated cells were quantified under a light microscope (FIG. 9A). […] To provide molecular insights into this inhibitory effect, we used a mouse macrophage cell line RAW 264.7, which can be induced to differentiate into osteoclasts when incubated with RANKL (32). Using RAW 264.7 cells, different genetic markers associated with osteoclastic differentiation were monitored (33). RAW 264.7 cells were treated with RANKL or MDA-7/IL-24 alone and in combination. RNA was isolated after 5 days of treatment and real time PCR quantified expression of TRAP, Cathepsin K (CTSK), and Calcitonin Receptor (CTR) genes. RANKL induced the expression of TRAP, CTSK and CTR gene expression. […]

PC cells = test: Colony formation (clonal) assay in PC cell lines; assay type: cell-based; settings: 200 cells plated, colonies counted 2 weeks after treatment
Description: (§1) MTT Cell Proliferation and Clonal Assays: Cell proliferation assays were done as described previously (25). Briefly, 2,000 cells were seeded in each well of a 96-well plate and allowed to attach overnight. Cells were treated with complete media in the presence or absence of different concentrations of MDA-7/IL-24 protein. At appropriate time points, cells were further incubated with MTT (3-(4, 5-di methyl thiazol-2-yl)-2, 5 diphenyl tetrazolium bromide) reagents. Finally, DMSO was applied to dissolve the blue salt and the OD was measured at 560 nm (25). For determining long-term effects, colony formation (cloning) assays were performed as described earlier (26). Briefly, 200 cells were plated and allowed to grow in the presence or absence of MDA-7/IL-24 for an additional 15 days. Culture media was replaced with fresh media containing MDA-7/IL-24 protein once a week, two times in total.

bone marrow cells [2] = test: Osteoclast differentiation of bone marrow from animals injected with elevated Akt-stable expression cells; assay type: in vivo, mice; settings: MDA-7/IL-24 protein 5 mg/kg, 6 doses; differentiation induced ex vivo
Description: (§2) Osteoclast Formation Assays: Bone marrow cells were induced for osteoclast differentiation using previously described protocols (28). Briefly, bone marrow cells were cultured in minimal essential medium (α-MEM) with 10% fetal bovine serum with MCSF (10 ng/ml) for 24 hrs. They were subsequently treated with RANKL (100 ng/ml) for 5 days. Cultured cells were fixed and stained for TRAP (Tartarate-resistant acid phosphatase). TRAP staining was performed following the specific protocol provided with the kit (Sigma-Aldrich, Inc. St. Louis, Mo., USA). Multinucleated cells, considered as differentiated osteoclasts, were counted manually under bright field microscope. TRACP enzymatic assays were done as per the manufacturer's instructions (R & D, Minneapolis, Minn., USA).
To evaluate the role of Akt in vivo, metastatic PC3-ML cells and PC3-ML cells over expressing constitutively active Akt (PC3-MI/**) (FIG. 5A) carrying firefly luciferase were injected into male athymic nude mice through the intracardiac route. Clone 1 was used for the in vivo studies, which was validated for expression of Akt downstream pathway gene expression by western blotting (FIG. 14). Proliferation, invasion, and migration of the tumor cells were monitored by IVIS® imaging. […] The Akt overexpressing PC3-ML cells were more metastatic than the control PC3-ML cells. […]

[3] = test system: primary bone marrow cells; test: Live-dead cell assay on primary bone marrow cells; assay type: cell-based, mouse; settings: treated in vitro at different doses
Description: Live-Dead Cell Assay: Live and dead cells were observed by confocal laser microscopy (Zeiss, Germany) after staining with live/dead staining reagent (Invitrogen, Carlsbad, Calif., USA) as per the manufacturer's instructions. The images were analyzed by Zeiss software.
BLI imaging followed development of metastatic lesions in bone.

RAW 264.7 = test: MTT proliferation assay in RAW 264.7 cells; assay type: cell-based, mouse; settings: His-MDA-7 10 μg/ml, 5 days
Description: as §1, with “Briefly, 200 cells were plated and allowed to grow in the presence or absence of MDA-7/IL-24 for an additional 15 days. Culture media was replaced with fresh media containing MDA-7/IL-24 protein once a week, two times in total.” left out
To investigate the effect of MDA-7/IL-24 on osteoclast differentiation, bone marrow cells from athymic nude mice were isolated and induced to differentiate with RANKL in the presence or absence of MDA-7/IL-24 protein. Five days after induction with RANKL, osteoclast differentiation was measured by counting multinucleated cells. Cells positively stained for TRAP and multinucleated cells were quantified under a light microscope (FIG. 9A). […] Using RAW 264.7 cells, different genetic markers associated with osteoclastic differentiation were monitored (33). […] RNA was isolated after 5 days of treatment and real time PCR quantified expression of TRAP, Cathepsin K (CTSK), and Calcitonin Receptor (CTR) genes. […]

bone marrow cells [4] = test: In vitro RANKL-induced osteoclast differentiation of primary bone marrow cells; assay type: cell-based, athymic nude mice; settings: RANKL induction 5 days, 10 μg/mL MDA-7/IL-24 protein
Description: as §2
To investigate the effect of MDA-7/IL-24 on osteoclast differentiation, bone marrow cells from athymic nude mice were isolated and induced to differentiate with RANKL in the presence or absence of MDA-7/IL-24 protein. Five days after induction with RANKL, osteoclast differentiation was measured by counting multinucleated cells. Cells positively stained for TRAP and multinucleated cells were quantified under a light microscope (FIG. 9A). […] To provide molecular insights into this inhibitory effect, we used a mouse macrophage cell line RAW 264.7, which can be induced to differentiate into osteoclasts when incubated with RANKL (32). Using RAW 264.7 cells, different genetic markers associated with osteoclastic differentiation were monitored (33). RAW 264.7 cells were treated with RANKL or MDA-7/IL-24 alone and in combination. RNA was isolated after 5 days of treatment and real time PCR quantified expression of TRAP, Cathepsin K (CTSK), and Calcitonin Receptor (CTR) genes. RANKL induced the expression of TRAP, CTSK and CTR gene expression. […] MTT assays were performed to determine if MDA-7/IL-24 caused any growth suppression in this cell line. Proliferation of RAW 264.7 was not affected by MDA-7/IL-24, further illustrating the tumor-specificity of this cytokine (FIG. 10B). DU-145 (PC) cells were used as a positive control (FIG. 10C).

[5] = test system: immortalized normal primary human prostate epithelial cells (RWPE-1); test: Colony formation (clonal) assay in RWPE-1 cells; assay type: cell-based; settings: 200 cells plated, colonies counted 2 weeks after treatment
Description: as §1

B1: MDA-7/IL-24 protein: Recombinant His-tagged MDA-7/IL-24 protein purified on Ni-NTA from supernatant of IM-PHFA cells infected with Ad.5-His-mda-7 (protein)
chain: QEFHFGPCQVKGVVPQKLWEAFWAVKDTMQAQDNITSARLLQQEVLQNVSDAESCYLVHTLLEFYLKTVFKNYHNRTVEVRTLKSFSTLANNFVLIVSQLQPSQENEMFSIRDSAHRRFLLFRRAFKQLDVEAALTKALGEVDILLTWMQKFYKL
PC3-ML^Akt
  bone metastasis by PC3-ML^Akt cells: diminished the inhibitory effects
PC3-ML^Akt; listed as MDA-7/IL-24
  bone metastasis by PC3-ML^Akt cells: inhibited metastasis
[1]
  RANKL-induced TRAP, CTSK and CTR gene expression: attenuated RANKL-induced regulation of these genes
PC cells
  proliferation of PC cells (colony formation): significantly reduced the proliferation of PC cells
Bone marrow cells [2]
  osteoclastic activity of bone marrow from animals with Akt overexpressing cells: decreased
[3]; listed as His-MDA-7
  toxicity in primary bone marrow cells: No apparent toxicity
[3]; listed as MDA-7/IL-24
  toxicity in primary bone marrow cells: no effect
RAW 264.7
  Proliferation of RAW 264.7 (MTT): not affected
Bone marrow cells [4]; listed as His-MDA-7
  number of osteoclasts (osteoclast differentiation): decreased significantly
  osteoclast activity (TRACP enzymatic activity): significantly less
Bone marrow cells [4]; listed as MDA-7/IL-24
  number of osteoclasts (osteoclast differentiation): significantly reduced; also recorded: reduced osteoclast differentiation
  osteoclast activity (TRACP enzymatic activity): significantly reduced
[5]
  proliferation capacity of RWPE-1 (colony formation): without affecting the proliferation capacity
